Molecular target: T1, transmembrane 4 L six family member 5 (TM4SF5) protein (human, UniProt O14894 1-197)
T1 sequence (looked up): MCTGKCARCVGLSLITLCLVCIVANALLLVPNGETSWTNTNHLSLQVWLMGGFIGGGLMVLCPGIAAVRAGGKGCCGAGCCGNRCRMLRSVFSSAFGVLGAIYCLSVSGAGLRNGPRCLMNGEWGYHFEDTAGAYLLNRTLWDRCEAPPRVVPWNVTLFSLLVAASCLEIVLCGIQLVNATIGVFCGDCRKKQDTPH
Assay: cell-based or functional assay

B1: monoclonal antibody #1 (scFv-Fc form) (Fc fusion, not shown: a dimerising Fc or GST)
scFv: EVQLQQFGAELVRPGASVTLSCKASGYTFTDYEMHWVKQTPVHGLEWIGAIDPETGGTAYNQKFKGKAILTADKSSSTAYMELRSLTSEDSAVYFCARLTLFYGNYDWPFDVWGTGTSVTVSSADIVMTQSQKFMSTSVGDRVSITCKASQNVRTAVAWYQQKPGQSPKLLIYWASTRHTGVPDRFTGSGSGTDFTLTISNVQSEDLADYFCQQYSSYPFTFGSGTKLEIK
inhibition of invasion of TM4SF5-overexpressing liver cancer cells (Tp), transwell assay, 20 µg/mL antibody: 83%

B2: monoclonal antibody #92 (scFv-Fc form) (Fc fusion, not shown: a dimerising Fc or GST)
scFv: EVQLQQSVADLVRPGASVKLSCTASGFNIENTYMHWVKQRPEQGLEWIGRIDPANGNTKYAPKFQDKATITADTSSNTAYLQLSSLTSEDTAVYYCTSLGAYWGQGTLVTVSAADAVLTQTPLSLPVSLGDQASISCRSSQSIVHSNGNTYLEWYLQKPGQSPKLLIYKVSNRFSGVPDRFSGSGSGTDFTLKISRVEAEDLGVYFCSQSTHVPLTFGAGTKLEIK
inhibition of growth of TM4SF5-overexpressing liver cancer cells (Tp, T16) in the absence of serum, 20 µg/mL antibody: ~50% | inhibition of infiltration of TM4SF5-overexpressing liver cancer cells (Tp), transwell assay, 20 µg/mL antibody: 46%

B3: monoclonal antibody #88 (scFv-Fc form) (Fc fusion, not shown: a dimerising Fc or GST)
scFv: QVQLQQFGAELVRPGASVKLSCKASGYTFTDYEMHWVKQTPVHGLEWIGAIDPETGGTAYNQKFKGKATLTADKSSSTAYMELRSLTSEDSAVYYCTPNYWYFDVWGAGTSVTVSSADAVVTQTPLSLPVSLGDQASISCRSSQSLVHSNGNTYLHWYLQKPGQSPKLLIYKVSNRFSGVPDRFSGSGSGTDFTLKISRVEAEDLGVYFCSQSTHVPYTFGGGTKLELK
inhibition of growth of TM4SF5-overexpressing liver cancer cells (Tp, T16) in the absence of serum, 20 µg/mL antibody: ~50% | inhibition of infiltration of TM4SF5-overexpressing liver cancer cells (Tp), transwell assay, 20 µg/mL antibody: 73%

B4: monoclonal antibody #79 (scFv-Fc form) (Fc fusion, not shown: a dimerising Fc or GST)
scFv: GVQLQQSGAELVRPGASVKLSCKASGYTFTDYEMHWVKQTPVHGLEWIGAIDPETGGTAYNQKFKGKAILTADKSSSTAYMELRSLTSEDSAVYYCTVYGLAYWGQGTLVTVSAADVVMTQTPLSLPVSLGDQASISCRSSQSLVHSNGNTYLHWYLQKPGQSPKLLIYKVSNRFSGVPDRFSGSGSGTDFTLKISRVEAEDLGVYFCSQNTHVPYTFGGGTKLELK
inhibition of invasion of TM4SF5-overexpressing liver cancer cells (Tp), transwell assay, 20 µg/mL antibody: 49%

B5: monoclonal antibody #27 (scFv-Fc form) (Fc fusion, not shown: a dimerising Fc or GST)
scFv: QVQLQQFGAELVRPGASVTLSCKASGYTFTDYEMHWVKQTPVHGLEWIGAIDPETGGTAYNQKFKGKAILTADKSSSTAYMELRSLTSEDSAVYYCTRPYLGYWGQGTTVTVSSADAVVTQTPLSLPVSLGDQASISCRSSQSLVHSNGNTYLHWYLQKPGQSPKLLIYKVSNRFSGVPDRFSGSGSGTDFTLKISRVEAEDLGVYYCFQGSHIPLTFGAGTKLELK
inhibition of invasion of TM4SF5-overexpressing liver cancer cells (Tp), transwell assay, 20 µg/mL antibody: 56%
